Here are results for three molecules from patent US20240124586A1 (WUXI BIOLOGICS IRELAND, published 2024).

One may read the Kd as the free concentration of one partner at which half of the binding sites on the other are occupied at equilibrium, for simple one-to-one binding. Read a low Kd as higher affinity. A word on the koff: it is the rate constant with which the complex falls apart. A high value points to fast dissociation. For orientation: kon means the second-order rate constant of association. The EC50 is the midpoint of the concentration-response curve.

The target in experiment [1] is T1, ECD of human CTLA-4 (SPR analyte) (human, UniProt P16410 36-161).
T1 construct: extracellular domain
Briefly: SPR (Biacore), antibody captured as ligand on an anti-human IgG Fc chip, CTLA4 ECD as analyte. As for the experimental part:
(§1) SPR technology was used to measure the on-rate constant (ka) and off-rate constant (kd) of the antibodies to ECD of CTLA-4 or PD-1. The affinity constant (KD) was consequently determined.
(§2) Biacore T200, Series S Sensor Chip CM5, Amine Coupling Kit, and 10×HBS-EP were purchased from GE Healthcare. Goat anti-human IgG Fc antibody was purchased from Jackson ImmunoResearch Lab (catalog number 109-005-098). In immobilization step, the activation buffer was prepared by mixing 400 mM EDC and 100 mM NHS immediately prior to injection. The CM5 sensor chip was activated for 420 s with the activation buffer. 30 μg/mL of goat anti-human IgG Fcγ antibody in 10 mM NaAc (pH 4.5) was then injected to Fc1-Fc4 channels for 200 s at a flow rate of 5 μL/min. The chip was deactivated by 1 M ethanolamine-HCl (GE). Then the antibodies were captured on the chip. Briefly, 4 μg/mL antibodies in running buffer (HBS-EP+) was injected individually to Fc3 channel for 30 s at a flow rate of […]. […] Regeneration buffer (10 mM Glycine pH 1.5) was injected at 10 μL min for 30 s following every dissociation phase.
On the technique in general: Surface plasmon resonance follows binding to a sensor surface in real time, without labels.

The target in experiment [2] is T1, ECD of human CTLA-4 (SPR analyte). Briefly: SPR (Biacore T200), antibody captured by anti-human Fc, CTLA-4 ECD as analyte. The protocol:
as §1, §2

The target of experiment [3] is T2, human PD-1 ECD mouse Fc fusion (W305-hPro1.ECD.mFc) (human, UniProt Q15116 25-170).
T2 construct: extracellular domain; In-house protein; also called hPD-1-ECD; human PD-1 coated on the plate
As to the kind of experiment: dual binding ELISA, PD-1 ECD.mFc coated, detection with biotinylated CTLA-4 ECD.hFc; first antibody named, first value; PD-1 coated, biotinylated CTLA-4 detection. The protocol:
In order to test whether the bispecific antibodies could bind to both hPD-1 and hCTLA-4, an ELISA assay was developed as below. A 96-well ELISA plate (Nunc MaxiSorp, ThermoFisher) was coated overnight at 4° C. with 0.5 μg/ml antigen-1 (hPD-1-ECD, W305-hPro1.ECD.mFc) in carbonate-bicarbonate buffer. After a 1 hour blocking step with 2% (w/v) bovine serum albumin (Pierce) dissolved in PBS, serial dilutions of the different PD-1×CTLA-4 bispecific antibodies in PBS containing 2% BSA PBS were incubated on the plates for 1 hour at room temperature. Following the incubation, plates were washed three times with 300 μL per well of PBS containing 0.5% (v/v) Tween 20. […] After washing the plates three times, Streptavidin-HRP (Lifetechnologies, #SNN1004) (1:20000 diluted) was added and incubated on the plates for 1 hour at room temperature. After washing six times with […] per well of PBS containing 0.5% (v/v) Tween 20, 100 μL tetramethylbenzidine (TMB) substrate was added for the detection per well. The reaction was stopped after approximately 5 minutes through the addition of […] per well of 2 M HCl. The absorbance of the wells was measured at 450 nm with a multiwall plate reader (SpectraMax® M5e).
Background: ELISA stands for enzyme-linked immunosorbent assay.

Another experiment deals with T3, FcγRI (UniProt P12314 16-288, limits assumed).
T3 construct: His-tagged by the capture method
As to the kind of experiment: SPR (Biacore), receptor captured on anti-his chip, 1:1 model. As for the experimental part:
Antibody binding affinity to FcγRs was detected using Biacore T200 (or Biacore 8K). Each receptor was captured on an anti-his antibody immobilized CM5 sensor chip (GE). Antibodies at different concentrations were injected over the sensor chip at a flow rate of 30 uL/min for an association phase of 60 s, followed by 60 s dissociation. The chip was then regenerated by 10 mM glycine (pH 1.5) after each binding cycle.
The sensorgrams of blank surface and buffer channel were subtracted from the test sensorgrams. The experimental data was fitted by 1:1 model using Langmiur analysis (for FcγRI) or steady state model (for other receptors). A molecular weight of 150 KDa was used to calculate the molar concentration of antibodies.

In experiment [4] the target is T4, human CD19 on CD19+ B cell lines (Ramos, Raji) (human, UniProt P15391 20-556).
T4 construct: whole, on cells; also called CD19+ Ramos cells; CD19+ Raji cells
T4 sequence (looked up): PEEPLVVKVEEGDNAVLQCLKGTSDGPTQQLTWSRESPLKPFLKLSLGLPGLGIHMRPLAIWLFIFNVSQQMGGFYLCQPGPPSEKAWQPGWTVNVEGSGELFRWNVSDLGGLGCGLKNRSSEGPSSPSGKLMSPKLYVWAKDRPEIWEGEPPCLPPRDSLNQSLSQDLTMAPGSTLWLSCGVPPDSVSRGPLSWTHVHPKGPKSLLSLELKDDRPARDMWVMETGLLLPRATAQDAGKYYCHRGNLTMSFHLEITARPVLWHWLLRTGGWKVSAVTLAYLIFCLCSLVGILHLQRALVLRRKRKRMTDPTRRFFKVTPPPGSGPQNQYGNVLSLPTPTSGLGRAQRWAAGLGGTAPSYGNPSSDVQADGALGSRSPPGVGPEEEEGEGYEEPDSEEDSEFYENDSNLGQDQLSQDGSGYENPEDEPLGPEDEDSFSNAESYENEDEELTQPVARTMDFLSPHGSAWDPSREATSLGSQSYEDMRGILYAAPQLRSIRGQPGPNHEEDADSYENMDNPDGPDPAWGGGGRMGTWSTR
As to the kind of experiment: flow cytometry on Ramos cells.

The target of experiment [5] is T5, human CD3 on CD3+ Jurkat cells (human, UniProt P07766 23-207; P09693 23-182; P04234 22-171).
T5 construct: whole, on cells; also called CD3 positive Jurkat cells
As to the kind of experiment: flow cytometry on Jurkat cells.

For experiment [6], the target named is T4, human CD19 on CD19+ B cell lines …. As to the kind of experiment: cell-based or functional assay.
In the next experiment the target is T6, FcRn (UniProt P55899 24-297; P61769 21-119, limits assumed).
T6 construct: a molecular weight of 45 kDa was used
As to the kind of experiment: SPR at pH 6.0, antibody immobilized, FcRn injected, steady state model; pH 6.0. As for the experimental part:
Antibody binding affinity to FcRn was detected using Biacore T200 (or Biacore 8K). Each antibody was immobilized on CM5 sensor chip (GE). FcRn at different concentrations in running buffer (50 mM Na2HPO4/NaH2PO4, 150 mM NaCl, 0.05% Tween20, pH 6.0) were injected over the sensor chip at a flow rate of 30 uL/min for an association phase of 60 s, followed by 60 s dissociation. The chip was then regenerated by 1×PBS (pH 7.4) after each binding cycle.

T1 sequence (P16410 36-161): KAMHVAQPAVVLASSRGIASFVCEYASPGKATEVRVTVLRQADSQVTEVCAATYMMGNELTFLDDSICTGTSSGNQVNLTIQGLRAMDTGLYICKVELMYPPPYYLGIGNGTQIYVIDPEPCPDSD
T5 sequence (P07766 23-207, chain 1 of 3): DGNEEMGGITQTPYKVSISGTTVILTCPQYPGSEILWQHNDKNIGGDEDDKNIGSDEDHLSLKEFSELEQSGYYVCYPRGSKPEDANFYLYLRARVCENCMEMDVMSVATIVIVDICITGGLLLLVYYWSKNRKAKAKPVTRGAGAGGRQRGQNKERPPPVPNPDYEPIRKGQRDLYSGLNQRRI
T5 sequence (P09693 23-182, chain 2 of 3): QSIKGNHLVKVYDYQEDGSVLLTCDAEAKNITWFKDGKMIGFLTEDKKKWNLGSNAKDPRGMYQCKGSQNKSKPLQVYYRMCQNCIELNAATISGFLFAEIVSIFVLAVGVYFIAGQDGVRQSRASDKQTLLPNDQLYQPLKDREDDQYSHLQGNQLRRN
T5 sequence (P04234 22-171, chain 3 of 3): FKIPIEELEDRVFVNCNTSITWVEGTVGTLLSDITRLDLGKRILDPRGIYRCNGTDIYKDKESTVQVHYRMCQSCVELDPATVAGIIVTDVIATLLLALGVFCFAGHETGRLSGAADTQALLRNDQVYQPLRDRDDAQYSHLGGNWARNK
T2 sequence (Q15116 25-170): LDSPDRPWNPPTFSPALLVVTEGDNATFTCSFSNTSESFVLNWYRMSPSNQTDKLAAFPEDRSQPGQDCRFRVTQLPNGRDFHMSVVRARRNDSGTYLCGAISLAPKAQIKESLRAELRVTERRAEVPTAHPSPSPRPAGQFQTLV
T6 sequence (P55899 24-297 limits assumed, chain 1 of 2): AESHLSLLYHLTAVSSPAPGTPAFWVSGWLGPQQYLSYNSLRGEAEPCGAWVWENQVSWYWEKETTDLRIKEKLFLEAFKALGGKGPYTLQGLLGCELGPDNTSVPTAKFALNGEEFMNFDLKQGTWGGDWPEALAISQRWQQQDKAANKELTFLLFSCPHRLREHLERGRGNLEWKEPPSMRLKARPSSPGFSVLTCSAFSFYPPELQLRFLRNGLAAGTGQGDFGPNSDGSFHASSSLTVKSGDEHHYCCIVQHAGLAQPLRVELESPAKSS
T6 sequence (P61769 21-119 limits assumed, chain 2 of 2): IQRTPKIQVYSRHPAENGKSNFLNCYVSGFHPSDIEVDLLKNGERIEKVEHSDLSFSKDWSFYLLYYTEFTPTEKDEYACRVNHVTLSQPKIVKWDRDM
T3 sequence (P12314 16-288 limits assumed): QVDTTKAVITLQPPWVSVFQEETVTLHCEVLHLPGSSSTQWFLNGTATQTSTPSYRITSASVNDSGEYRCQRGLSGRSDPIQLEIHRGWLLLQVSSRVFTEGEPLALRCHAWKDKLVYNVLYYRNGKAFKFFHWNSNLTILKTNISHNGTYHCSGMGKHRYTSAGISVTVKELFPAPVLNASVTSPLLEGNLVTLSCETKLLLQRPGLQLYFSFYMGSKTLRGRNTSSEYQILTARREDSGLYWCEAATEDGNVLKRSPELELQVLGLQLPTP

B1: W3248-U6T5.G25-1.uIgG4.SP, bispecific anti-PD-1 x CTLA-4 (bispecific antibody)
heavy: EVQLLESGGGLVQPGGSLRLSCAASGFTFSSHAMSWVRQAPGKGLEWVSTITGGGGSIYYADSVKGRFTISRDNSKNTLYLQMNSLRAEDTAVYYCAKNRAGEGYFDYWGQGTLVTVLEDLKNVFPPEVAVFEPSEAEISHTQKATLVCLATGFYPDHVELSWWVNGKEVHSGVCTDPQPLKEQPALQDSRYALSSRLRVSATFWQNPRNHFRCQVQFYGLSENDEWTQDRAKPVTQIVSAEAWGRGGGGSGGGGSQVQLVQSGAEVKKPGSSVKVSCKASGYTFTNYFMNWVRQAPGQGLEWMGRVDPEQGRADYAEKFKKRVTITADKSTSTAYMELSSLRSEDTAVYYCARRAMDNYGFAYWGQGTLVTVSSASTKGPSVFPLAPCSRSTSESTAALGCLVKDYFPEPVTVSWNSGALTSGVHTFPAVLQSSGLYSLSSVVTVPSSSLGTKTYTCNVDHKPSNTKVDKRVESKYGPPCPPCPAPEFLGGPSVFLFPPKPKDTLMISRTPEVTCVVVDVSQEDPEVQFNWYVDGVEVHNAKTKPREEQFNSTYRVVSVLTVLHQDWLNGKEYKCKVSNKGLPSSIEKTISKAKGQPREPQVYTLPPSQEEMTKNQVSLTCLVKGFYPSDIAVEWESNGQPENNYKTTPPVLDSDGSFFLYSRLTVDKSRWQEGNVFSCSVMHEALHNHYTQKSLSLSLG
light 1: SYELTQPLSVSVALGQTARITCGGDNIGNKDVHWYQQKPGQAPVLVIYRDSNRPSGIPEGFSGSNSGNTATLTISRAQAGDEADYYCQVWDSIWVFGGGTKLTVLPDIQNPDPAVYQLRDSKSSDKSVCLFTDFDSQTQVSQSKDSDVYITDKCVLDMRSMDFKSNSAVAWSQKSDFACANAFQNSIIPEDTFFPSPESS
light 2: EIVLTQSPDFQSVTPKEKVTITCSANSALSYMYWYQQKPDQSPKLWVHGTSNLASGVPSRFSGSGSGTDFTLTINSLEAEDAATYYCHHWSNTQWTFGGGTKVEIKRTVAAPSVFIFPPSDEQLKSGTASVVCLLNNFYPREAKVQWKVDNALQSGNSQESVTEQDSKDSTYSLSSTLTLSKADYEKHKVYACEVTHQGLSSPVTKSFNRGEC
notes: IgG4 (S228P); also called WBP3248-U6T5.G25-1-uIgG4.SP; U6T5.G25.IgG4
B1: in experiment [1], the equilibrium dissociation constant (Kd) stood at 0.0356 nM, the koff worked out at 2.88e-05 s⁻¹ and the kon worked out at 808000 M⁻¹ s⁻¹. In addition, in experiment [2], the Kd is 0.357 nM.

B2: W3248-U6T1.G25R-1.uIgG4.SP, bispecific anti-PD-1 x CTLA-4 (bispecific antibody)
heavy: EVQLLESGGGLVQPGGSLRLSCAASGFTFSSHAMSWVRQAPGKGLEWVSTITGGGGSIYYADSVKGRFTISRDNSKNTLYLQMNSLRAEDTAVYYCAKNRAGEGYFDYWGQGTLVTVSSASTKGPSVFPLAPCSRSTSESTAALGCLVKDYFPEPVTVSWNSGALTSGVHTFPAVLQSSGLYSLSSVVTVPSSSLGTKTYTCNVDHKPSNTKVDKRVGGGGSGGGGSQVQLVESGGGVVQPGRSLRLSCAASGFTFSSYTMHWVRQAPGKGLEWVTFISYDGNNKYYADSVKGRFTISRDNSKNTLYLQMNSLRAEDTAIYYCARTGWLGPFDYWGQGTLVTVLEDLKNVFPPEVAVFEPSEAEISHTQKATLVCLATGFYPDHVELSWWVNGKEVHSGVCTDPQPLKEQPALQDSRYALSSRLRVSATFWQNPRNHFRCQVQFYGLSENDEWTQDRAKPVTQIVSAEAWGRYGPPCPPCPAPEFLGGPSVFLFPPKPKDTLMISRTPEVTCVVVDVSQEDPEVQFNWYVDGVEVHNAKTKPREEQFNSTYRVVSVLTVLHQDWLNGKEYKCKVSNKGLPSSIEKTISKAKGQPREPQVYTLPPSQEEMTKNQVSLTCLVKGFYPSDIAVEWESNGQPENNYKTTPPVLDSDGSFFLYSRLTVDKSRWQEGNVFSCSVMHEALHNHYTQKSLSLSLG
light 1: SYELTQPLSVSVALGQTARITCGGDNIGNKDVHWYQQKPGQAPVLVIYRDSNRPSGIPEGFSGSNSGNTATLTISRAQAGDEADYYCQVWDSIWVFGGGTKLTVLGQPKAAPSVTLFPPSSEELQANKATLVCLISDFYPGAVTVAWKADSSPVKAGVETTTPSKQSNNKYAASSYLSLTPEQWKSHKSYSCQVTHEGSTVEKTVAPTECS
light 2: not shown
notes: IgG4 (S228P); also called U6T1.G25R.IgG4
Consider B2, for which, in experiment [3], the EC50 turned out to be 0.107 nM.

B3: W3438-T3U4.E17-1.uIgG4.SP, bispecific anti-CD3 x CD19 (bispecific antibody)
heavy 1: QVQLVQSGAEVKKPGSSVKVSCKASGFAFTDYYIHWVRQAPGQGLEWMGWISPGNVNTKYNENFKGRVTITADKSTSTAYMELSSLRSEDTAVYYCARDGYSLYYFDYWGQGTLVTVLEDLKNVFPPEVAVFEPSEAEISHTQKATLVCLATGFYPDHVELSWWVNGKEVHSGVCTDPQPLKEQPALQDSRYALSSRLRVSATFWQNPRNHFRCQVQFYGLSENDEWTQDRAKPVTQIVSAEAWGRYGPPCPPCPAPEFLGGPSVFLFPPKPKDTLMISRTPEVTCVVVDVSQEDPEVQFNWYVDGVEVHNAKTKPREEQFNSTYRVVSVLTVLHQDWLNGKEYKCKVSNKGLPSSIEKTISKAKGQPREPQVYTLPPCQEEMTKNQVSLWCLVKGFYPSDIAVEWESNGQPENNYKTTPPVLDSDGSFFLYSRLTVDKSRWQEGNVFSCSVMHEALHNHYTQKSLSLSLGK
light 1: DIVMTQSPDSLAVSLGERATINCKSSQSLLNSRTRKNYLAWYQQKPGQPPKLLIYWASTRQSGVPDRFSGSGSGTDFTLTISSLQAEDVAVYYCTQSHTLRTFGGGTKVEIKPDIQNPDPAVYQLRDSKSSDKSVCLFTDFDSQTQVSQSKDSDVYITDKCVLDMRSMDFKSNSAVAWSQKSDFACANAFQNSIIPEDTFFPSPESS
heavy 2: QMQLVQSGPEVKKPGTSVKVSCKASGYAFTSYNMYWVRQARGQRLEWIGYIDPYNGDTTYNQKFKGRVTITRDMSTSTAYMELSSLRSEDTAVYYCLTTAYAMDYWGQGTLVTVSSASTKGPSVFPLAPCSRSTSESTAALGCLVKDYFPEPVTVSWNSGALTSGVHTFPAVLQSSGLYSLSSVVTVPSSSLGTKTYTCNVDHKPSNTKVDKRVESKYGPPCPPCPAPEFLGGPSVFLFPPKPKDTLMISRTPEVTCVVVDVSQEDPEVQFNWYVDGVEVHNAKTKPREEQFNSTYRVVSVLTVLHQDWLNGKEYKCKVSNKGLPSSIEKTISKAKGQPREPQVCTLPPSQEEMTKNQVSLSCAVKGFYPSDIAVEWESNGQPENNYKTTPPVLDSDGSFFLVSRLTVDKSRWQEGNVFSCSVMHEALHNHYTQKSLSLSLGK
light 2: DIQLTQSPSFLSASVGDRVTITCSASSTVNYMHWYQQKPGKAPKLLIYSTSNLASGVPSRFSGSGSGTEFTLTISSLQPEDFATYYCHQWSSYPYTFGQGTKLEIKRTVAAPSVFIFPPSDEQLKSGTASVVCLLNNFYPREAKVQWKVDNALQSGNSQESVTEQDSKDSTYSLSSTLTLSKADYEKHKVYACEVTHQGLSSPVTKSFNRGEC
notes: also called E17-Design_2-QQQQ (IgG4); E17-IgG4; copies: 1 + 1 + 1 + 1
Consider B3, for which the Kd with FcγRI amounted to 9.79 nM; with FcRn, 2580 nM. Besides, the half-maximal effective concentration (EC50) in experiment [4] came out at 15.6 nM; in experiment [5] it was 47 nM. For the same molecule, the “EC50 of T-cell directed killing of malignant B cells (PI-positive Raji cells)” value in experiment [6] was found to be 0.057 nM. The “EC50 of T-cell engaged malignant B cell killing” value in experiment [6] amounted to 0.0177 nM. For the same molecule, the “EC50 of cell lysis, CD8+ T cells and Raji cells, 4 hours” value in experiment [6] worked out at 15 nM.
